For the test, the target named is rabbit anti-human IDO polyclonal antibody (raised against the KLH-conjugated peptide of SEQ ID NO: 1, affinity purified). Put plainly: flow cytometry of IFNgamma-activated monocyte-derived macrophages; antibody pre-adsorbed with immunizing peptide (competition against cellular IDO). A general note: In flow cytometry, cells or beads pass a laser one at a time.

B1: immunizing peptide … (SEQ ID NO: 1), based on human IDO (peptide)
peptide: LIESGQLRERVEKLNMLC
For B1, the percent reduction of flow cytometry signal was over 95%.

The values above are taken from patent publication US20040234623A1.
